Legend:
[1] = target: T1, LY75 (DEC-205) on COLO205 cells (human, UniProt O60449 28-1722); assay: competitive FACS on COLO205 cells
T1 construct: Endogenous LY75 on COLO205 human colorectal adenocarcinoma cells; also called Lymphocyte antigen 75
Method: Cells were washed and resuspended in FACS buffer (PBS+2% FBS), neutralized with growth media, and counted. Cells were plated at 50,000 cells per well in a V Bottom 96-well plate. Cells were washed once with FACS buffer (PBS (Fisher, catalog # SH30028-03)+2% FBS). […] Test wells that required single or multiple staining steps were left in FACS buffer as appropriate to ensure the final staining was completed simultaneously for all conditions tested. Two wells were left unstained in FACS buffer as controls.
After the incubation with blocking antibody, cells were washed twice in FACS buffer. […] The cells were washed as above and resuspended in FACS buffer plus 1 ug/ml mouse anti-maytansine antibody and incubated in ice for 45 minutes. The cells were washed as above and resuspended in FACS buffer containing 2 ug/ml goat anti-mouse kappa RPE. The cells were incubated on ice for 45 minutes then washed as above. The cells were resuspended in FACS buffer at 200 ul per well. Mean fluorescence intensity of each sample was determined using a Guava EasyCyte Plus HT Flow Cytometer (96 well plate formats) and the raw data was analyzed using the Guava Cytosoft.

[2] = target: Contiguous 8mer peptides of LY75 protein spanning residues 216 to 1666 of the full length LY75 protein (peptide microarray); assay: peptide microarray, 1 ug/mL LY75_A1, anti-human IgG Alexa 647, scan at 635 nm
EVKDCRSF = target: T2, EVKDCRSF; assay: peptide microarray, 1 µg/mL LY75_A1, anti-human IgG Alexa 647
T2 peptide: EVKDCRSF
Method: (§1) The chip comprised three panels such that the experiment was performed in triplicate. […] The binding assay was performed under the following conditions:—The microarray comprising the contiguous peptides in triplicate was washed with 1 mL of binding buffer at 4° C. for 20 min. […] The array was again washed with 0.5 mL of washing buffer at 4° C. for 30 min.

RSFKALSI = target: T3, RSFKALSI; assay: as above
T3 peptide: RSFKALSI
Method: as §1

SCYKVFHA = target: T4, SCYKVFHA; assay: as above
T4 peptide: SCYKVFHA
Method: as §1

CYKVFHAE = target: T5, CYKVFHAE; assay: as above
T5 peptide: CYKVFHAE
Method: as §1

SLSCYKVF = target: T6, SLSCYKVF; assay: as above
T6 peptide: SLSCYKVF
Method: as §1

LSCYKVFH = target: T7, LSCYKVFH; assay: as above
T7 peptide: LSCYKVFH
Method: as §1

DHFTYSRY = target: T8, DHFTYSRY; assay: as above
T8 peptide: DHFTYSRY
Method: as §1

YSRYPWHR = target: T9, YSRYPWHR; assay: as above
T9 peptide: YSRYPWHR
Method: as §1

YPWHRFPV = target: T10, YPWHRFPV; assay: as above
T10 peptide: YPWHRFPV
Method: as §1

WHRFPVTF = target: T11, WHRFPVTF; assay: as above
T11 peptide: WHRFPVTF
Method: as §1

ELTYSNFH = target: T12, ELTYSNFH; assay: as above
T12 peptide: ELTYSNFH
Method: as §1

LTYSNFHP = target: T13, LTYSNFHP; assay: as above
T13 peptide: LTYSNFHP
Method: as §1

TYSNFHPL = target: T14, TYSNFHPL; assay: as above
T14 peptide: TYSNFHPL
Method: as §1

YSNFHPLL = target: T15, YSNFHPLL; assay: as above
T15 peptide: YSNFHPLL
Method: as §1

EAVYFHQH = target: T16, EAVYFHQH; assay: as above
T16 peptide: EAVYFHQH
Method: as §1

AVYFHQHS = target: T17, AVYFHQHS; assay: as above
T17 peptide: AVYFHQHS
Method: as §1

VYFHQHSI = target: T18, VYFHQHSI; assay: as above
T18 peptide: VYFHQHSI
Method: as §1

YFHQHSIL = target: T19, YFHQHSIL; assay: as above
T19 peptide: YFHQHSIL
Method: as §1

KKLSRLTY = target: T20, KKLSRLTY; assay: as above
T20 peptide: KKLSRLTY
Method: as §1

KLSRLTYS = target: T21, KLSRLTYS; assay: as above
T21 peptide: KLSRLTYS
Method: as §1

LSRLTYSS = target: T22, LSRLTYSS; assay: as above
T22 peptide: LSRLTYSS
Method: as §1

NGSRWIQY = target: T23, NGSRWIQY; assay: as above
T23 peptide: NGSRWIQY
Method: as §1

GSRWIQYK = target: T24, GSRWIQYK; assay: as above
T24 peptide: GSRWIQYK
Method: as §1

SRWIQYKG = target: T25, SRWIQYKG; assay: as above
T25 peptide: SRWIQYKG
Method: as §1

RWIQYKGH = target: T26, RWIQYKGH; assay: as above
T26 peptide: RWIQYKGH
Method: as §1

WIQYKGHC = target: T27, WIQYKGHC; assay: as above
T27 peptide: WIQYKGHC
Method: as §1

QYKGHCYK = target: T28, QYKGHCYK; assay: as above
T28 peptide: QYKGHCYK
Method: as §1

YKGHCYKS = target: T29, YKGHCYKS; assay: as above
T29 peptide: YKGHCYKS
Method: as §1

HCYKSDQA = target: T30, HCYKSDQA; assay: as above
T30 peptide: HCYKSDQA
Method: as §1

CYKSDQAL = target: T31, CYKSDQAL; assay: as above
T31 peptide: CYKSDQAL
Method: as §1

YKSDQALH = target: T32, YKSDQALH; assay: as above
T32 peptide: YKSDQALH
Method: as §1

KSDQALHS = target: T33, KSDQALHS; assay: as above
T33 peptide: KSDQALHS
Method: as §1

T1 sequence (O60449 28-1722 limits assumed): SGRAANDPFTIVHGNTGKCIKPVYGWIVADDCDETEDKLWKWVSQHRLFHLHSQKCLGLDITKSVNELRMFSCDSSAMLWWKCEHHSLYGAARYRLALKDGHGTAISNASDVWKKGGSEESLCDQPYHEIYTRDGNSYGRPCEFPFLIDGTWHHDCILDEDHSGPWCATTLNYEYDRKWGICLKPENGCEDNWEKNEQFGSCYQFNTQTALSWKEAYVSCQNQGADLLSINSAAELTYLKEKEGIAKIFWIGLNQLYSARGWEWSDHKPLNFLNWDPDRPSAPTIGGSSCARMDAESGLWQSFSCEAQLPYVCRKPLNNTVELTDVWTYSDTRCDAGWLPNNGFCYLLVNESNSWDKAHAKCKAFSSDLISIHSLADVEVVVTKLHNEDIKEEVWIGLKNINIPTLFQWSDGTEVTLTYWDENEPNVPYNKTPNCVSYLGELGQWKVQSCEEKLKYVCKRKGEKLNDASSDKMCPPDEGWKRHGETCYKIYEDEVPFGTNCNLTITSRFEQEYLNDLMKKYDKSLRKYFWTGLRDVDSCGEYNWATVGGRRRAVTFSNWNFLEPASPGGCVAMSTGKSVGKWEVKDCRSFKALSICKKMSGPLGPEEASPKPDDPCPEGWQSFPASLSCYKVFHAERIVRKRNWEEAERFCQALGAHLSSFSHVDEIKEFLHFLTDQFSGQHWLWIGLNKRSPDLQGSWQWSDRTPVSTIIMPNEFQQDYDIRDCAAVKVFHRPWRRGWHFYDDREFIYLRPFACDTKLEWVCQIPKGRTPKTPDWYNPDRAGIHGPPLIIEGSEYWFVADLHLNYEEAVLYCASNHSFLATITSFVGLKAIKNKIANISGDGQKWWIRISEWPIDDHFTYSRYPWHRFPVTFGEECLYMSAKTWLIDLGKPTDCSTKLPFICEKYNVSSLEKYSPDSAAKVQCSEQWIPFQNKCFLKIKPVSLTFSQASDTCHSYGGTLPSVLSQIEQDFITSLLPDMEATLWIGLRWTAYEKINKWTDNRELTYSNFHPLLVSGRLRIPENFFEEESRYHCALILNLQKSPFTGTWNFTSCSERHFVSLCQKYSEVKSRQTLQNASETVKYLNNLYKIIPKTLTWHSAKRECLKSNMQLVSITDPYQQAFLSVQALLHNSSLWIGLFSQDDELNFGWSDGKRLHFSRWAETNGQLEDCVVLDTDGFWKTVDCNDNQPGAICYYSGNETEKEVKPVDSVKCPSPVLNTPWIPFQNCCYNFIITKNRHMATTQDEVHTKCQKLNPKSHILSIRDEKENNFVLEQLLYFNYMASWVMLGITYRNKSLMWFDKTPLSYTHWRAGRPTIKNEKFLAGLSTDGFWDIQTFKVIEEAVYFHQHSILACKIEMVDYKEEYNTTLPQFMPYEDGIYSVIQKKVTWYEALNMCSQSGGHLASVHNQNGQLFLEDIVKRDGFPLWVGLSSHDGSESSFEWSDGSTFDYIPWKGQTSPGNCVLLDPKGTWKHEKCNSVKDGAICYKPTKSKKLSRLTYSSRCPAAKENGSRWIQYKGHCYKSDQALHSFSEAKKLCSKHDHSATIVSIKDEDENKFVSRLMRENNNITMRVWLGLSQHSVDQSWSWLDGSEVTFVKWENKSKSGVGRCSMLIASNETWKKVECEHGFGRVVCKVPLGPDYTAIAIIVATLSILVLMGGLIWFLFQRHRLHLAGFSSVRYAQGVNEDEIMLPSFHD

B1: LY75_A1 monoclonal antibody (antibody, V domains shown)
VH: EVQLVESGGGLVKPGGSLRLSCAASGFTYSNAWMSWVRQAPGKGLEWVGRIKSKTDGGTTDYAAPVQGRFTISRDDSKNTLYLQMNSLKTEDTAVYYCTIFGVVSFDYWGQGTLVTVSS
VL: DVQMTQSPSSLSASVGDRVTITCRASQSISDYLSWYQQRPGKAPNLLIYAASNLKTGVPSRFSGSGSGTDFTLTISTLQPEDFATYYCQQSYRSPWTFGQGTKVEIKR
notes: also called LY75A1 antibody; LY75_A1 antibody
885: average signal for all spots on the array (signal intensity (scale 1-65535)) [2]
no binding (tested: 1 µg/mL): binding result (RSFKALSI) | binding result (CYKVFHAE) | binding result (WIQYKGHC) | binding result (HCYKSDQA) | binding result (CYKSDQAL) | binding result (KSDQALHS)
25000: maximum signal intensity (signal intensity (scale 1-65535)) [2]
binds: binding result [1] | binding result (EVKDCRSF) | binding result (SCYKVFHA) | binding result (SLSCYKVF) | binding result (LSCYKVFH) | binding result (DHFTYSRY) | binding result (YSRYPWHR) | binding result (YPWHRFPV) | binding result (WHRFPVTF) | binding result (ELTYSNFH) | binding result (LTYSNFHP) | binding result (TYSNFHPL) | binding result (YSNFHPLL) | binding result (EAVYFHQH) | binding result (AVYFHQHS) | binding result (VYFHQHSI) | binding result (YFHQHSIL) | binding result (KKLSRLTY) | binding result (KLSRLTYS) | binding result (LSRLTYSS) | binding result (NGSRWIQY) | binding result (GSRWIQYK) | binding result (SRWIQYKG) | binding result (RWIQYKGH) | binding result (QYKGHCYK) | binding result (YKGHCYKS) | binding result (YKSDQALH)

From patent US20160257760A1 (OXFORD BIOTHERAPEUTICS, published 2016)
